Series [1] addresses T1, CFP10 antigen (Mycobacterium tuberculosis, UniProt P9WNK5 2-100). Nature of the series: ELONA; no significant difference from aptamer-alone control; ELONA: antigen coated in 0.06 M carbonate pH 9.6, 3% BSA block, aptamer 2 h at room temperature, 0.01 M PBS washes; aptamer/electrode binding buffer 20 mM Tris-HCl pH 7.4, 150 mM NaCl, 2 mM MgCl2, 2 mM KCl, 2 mM CaCl2, room temperature. The conditions noted are these: protein: recombinant; label: biotin.

Series [2] has as its target T2, MPT64 antigen (Mycobacterium tuberculosis, UniProt P9WIN9 24-228). Nature of the series: ELONA; 5 uM aptamer; antigen coated at 5 ug/mL; p < 0.0001 vs control; ELONA: antigen coated in 0.06 M carbonate pH 9.6, 3% BSA block, aptamer 2 h at room temperature, 0.01 M PBS washes; aptamer/electrode binding buffer 20 mM Tris-HCl pH 7.4, 150 mM NaCl, 2 mM MgCl2, 2 mM KCl, 2 mM CaCl2, room temperature. The settings on record: protein: recombinant; label: biotin.

Series [3] deals with T1, CFP10 antigen. In words: amperometric sandwich aptasensor; selectivity test; read-out also needs anti-MPT64 antibody; ELONA: antigen coated in 0.06 M carbonate pH 9.6, 3% BSA block, aptamer 2 h at room temperature, 0.01 M PBS washes; aptamer/electrode binding buffer 20 mM Tris-HCl pH 7.4, 150 mM NaCl, 2 mM MgCl2, 2 mM KCl, 2 mM CaCl2, room temperature. The conditions noted are these: protein: recombinant.

For series [4], the target named is T2, MPT64 antigen. Nature of the series: amperometric sandwich aptasensor; HRP anti-MPT64 antibody detection; LOD 1.11 ng/mL, linear 5-200 ng/mL; ELONA: antigen coated in 0.06 M carbonate pH 9.6, 3% BSA block, aptamer 2 h at room temperature, 0.01 M PBS washes; aptamer/electrode binding buffer 20 mM Tris-HCl pH 7.4, 150 mM NaCl, 2 mM MgCl2, 2 mM KCl, 2 mM CaCl2, room temperature. The conditions noted are these: protein: recombinant.

T2 sequence (P9WIN9 24-228): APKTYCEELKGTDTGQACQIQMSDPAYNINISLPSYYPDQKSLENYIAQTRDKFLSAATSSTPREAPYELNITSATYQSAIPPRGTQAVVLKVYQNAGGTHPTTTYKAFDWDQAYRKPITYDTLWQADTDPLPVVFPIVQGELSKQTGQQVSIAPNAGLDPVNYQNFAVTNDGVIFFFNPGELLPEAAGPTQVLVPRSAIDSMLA
T1 sequence (P9WNK5 2-100): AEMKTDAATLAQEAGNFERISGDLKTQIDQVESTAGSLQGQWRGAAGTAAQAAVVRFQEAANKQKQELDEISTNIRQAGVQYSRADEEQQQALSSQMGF

B1: MPT64 aptamer, biotinylated (ELONA) (ssDNA)
DNA: TTTTTTTTTTGGGAGCTGATGTCGCATGGGTTTTGATCACATGA
modifications: biotin, position not stated
For the molecule B1, the binding result is “no binding” with CFP10 antigen [1] and “binds” with MPT64 antigen [2].

B2: MPT64 aptamer, 5'-amino (electrode) (ssDNA)
DNA: B1 DNA
modifications: 5' AmMC6
For B2, the binding result with CFP10 antigen [3] was “no binding”; with MPT64 antigen [4] it was “binds”.

The values are drawn from paper PMC9329948, “Surface-Enhanced Carboxyphenyl Diazonium Functionalized Screen-Printed Carbon Electrode for the Screening of Tuberculosis in Sputum Samples”.
